Results as given in PMC11869524, “A leucine responsive small RNA AbcR200 regulates expression of the lactate utilization (lut) operon in Acinetobacter baumannii DS002” (The Journal of Biological Chemistry, 2025).
“And” between values parts separate entries of the source, which are not always exact repeats. Equal values may be shown once.

Key:
[1] = biological target: the molecule itself; experiment: cross-linking; 23 uM purified AbLrp^C6His dialyzed against 20 mM Hepes, 150 mM NaCl, pH 8.0; DSS (3 mM), 30 min at room temperature, quenched with Tris-Cl; SDS-PAGE (12.5%) and Western blot with anti-His antibodies; without leucine, with or without DNA (300 ng) containing the Lrp binding site
[2] = biological target: the molecule itself; experiment: cross-linking; 23 uM purified AbLrp^C6His dialyzed against 20 mM Hepes, 150 mM NaCl, pH 8.0; DSS (3 mM), 30 min at room temperature, quenched with Tris-Cl; SDS-PAGE (12.5%) and Western blot with anti-His antibodies; with leucine (5 mM), with or without DNA (300 ng) containing the Lrp binding site

B1: A. baumannii DS002 Lrp protein (AbLrp^C6His), leucine responsive regulatory protein (natural protein, Acinetobacter baumannii DS002, UniProt V5VJ98 1-155, looked up)
chain: MRPLDRIDRMILDILQREGRIAISELASRVNLSTTPCSERVKRLERDGIIMGYYARLNPAYVDRNLLVFLEIKLSAKSGDVFDQVARDLVEIPEVLECHLISGEFDYLVKARLKEMSAYRRLLGDLLKKLPASASSHSYVVMEEVKETLYLDVSK
notes: Leucine responsive regulatory protein (Lrp) of Acinetobacter baumannii DS002; lrp gene amplified from chromosomal DNA with primers HS36 FP/HS36 RP and cloned in pET23b as NdeI and XhoI fragment (pHS10); not shown: His6, C-terminal, kept
stoichiometry N [1]: 4 | stoichiometry N [2]: 2 and 3
